Experimental data: US6995018 (US Dept. of Health and Human Services, dated 2006)

Experiments:
[1] = molecular target: T1, human complement Factor H (human, UniProt P08603 19-1231); assay: steady state fluorescence, titration of purified human Factor H with rDMP1
T1 construct: In some experiments Factor H is the endogenous protein of normal human serum; also called fH; purified human Factor H (Quidel)
Source text: (§1) Steady state fluorescence studies were accomplished by titrating purified human complement Factor H with rBSP, rOPN, and rDMP1 followed by excitation at 295 nm and monitoring emission between 300 and 450 nm. The emission profile of Factor H alone yields a peak at 347 nm. The addition of rBSP, rOPN, or rDMP1 in nm increments causes a relative fluorescent intensity quenching. Conversion of the fluorescent intensity titration into a binding curve by determining the fraction of binding sites occupied as the fractional change in fluorescence quenching at 347 nm yields a saturable binding curve. […] Given that normal serum concentration of Factor H is ~0.5 mg/mL it is probable that virtually all BSP, OPN, and DMP1 in serum will be complexed with Factor H.

[2] = molecular target: T1, human complement Factor H; assay: steady state tryptophan fluorescence quenching, titration of Factor H with BSP
Source text: as §1

[3] = molecular target: T2, αVβ3 integrin on murine erythroleukemia (MEL) cells (murine (MEL cells), UniProt P43406 31-1044; O54890 26-787); assay: inferred from MEL cell complement lysis assay with GRGDS peptide, αVβ3 antibody and RGD->KAE mutant
T2 construct: whole, on cells; also called integrins; cell surface integrins
T2 sequence (P43406 31-1044, chain 1 of 2): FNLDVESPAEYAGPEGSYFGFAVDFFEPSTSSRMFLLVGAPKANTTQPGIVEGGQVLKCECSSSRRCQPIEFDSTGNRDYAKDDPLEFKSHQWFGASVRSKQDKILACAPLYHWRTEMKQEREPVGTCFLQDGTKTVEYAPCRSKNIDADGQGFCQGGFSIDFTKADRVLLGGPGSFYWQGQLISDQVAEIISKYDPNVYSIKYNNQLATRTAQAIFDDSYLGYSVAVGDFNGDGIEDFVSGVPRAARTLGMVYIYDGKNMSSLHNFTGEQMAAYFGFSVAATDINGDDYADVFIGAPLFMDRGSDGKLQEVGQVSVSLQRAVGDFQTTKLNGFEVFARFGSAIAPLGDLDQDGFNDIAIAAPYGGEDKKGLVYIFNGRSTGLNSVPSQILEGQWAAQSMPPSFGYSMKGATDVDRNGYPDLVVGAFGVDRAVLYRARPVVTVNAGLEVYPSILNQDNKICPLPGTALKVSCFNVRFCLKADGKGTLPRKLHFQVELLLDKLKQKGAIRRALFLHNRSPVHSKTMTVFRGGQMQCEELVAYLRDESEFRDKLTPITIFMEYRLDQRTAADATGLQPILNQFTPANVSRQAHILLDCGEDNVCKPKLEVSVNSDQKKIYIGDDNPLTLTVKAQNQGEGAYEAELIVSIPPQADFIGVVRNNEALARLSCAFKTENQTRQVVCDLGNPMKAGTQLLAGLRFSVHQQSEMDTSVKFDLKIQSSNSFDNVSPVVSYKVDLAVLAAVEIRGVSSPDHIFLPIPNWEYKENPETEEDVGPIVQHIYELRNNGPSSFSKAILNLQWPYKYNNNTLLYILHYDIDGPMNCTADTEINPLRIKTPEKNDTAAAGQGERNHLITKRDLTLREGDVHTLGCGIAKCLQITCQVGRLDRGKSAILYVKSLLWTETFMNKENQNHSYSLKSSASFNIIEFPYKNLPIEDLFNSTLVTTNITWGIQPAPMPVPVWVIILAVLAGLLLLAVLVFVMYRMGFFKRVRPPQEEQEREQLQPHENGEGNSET
T2 sequence (O54890 26-787, chain 2 of 2): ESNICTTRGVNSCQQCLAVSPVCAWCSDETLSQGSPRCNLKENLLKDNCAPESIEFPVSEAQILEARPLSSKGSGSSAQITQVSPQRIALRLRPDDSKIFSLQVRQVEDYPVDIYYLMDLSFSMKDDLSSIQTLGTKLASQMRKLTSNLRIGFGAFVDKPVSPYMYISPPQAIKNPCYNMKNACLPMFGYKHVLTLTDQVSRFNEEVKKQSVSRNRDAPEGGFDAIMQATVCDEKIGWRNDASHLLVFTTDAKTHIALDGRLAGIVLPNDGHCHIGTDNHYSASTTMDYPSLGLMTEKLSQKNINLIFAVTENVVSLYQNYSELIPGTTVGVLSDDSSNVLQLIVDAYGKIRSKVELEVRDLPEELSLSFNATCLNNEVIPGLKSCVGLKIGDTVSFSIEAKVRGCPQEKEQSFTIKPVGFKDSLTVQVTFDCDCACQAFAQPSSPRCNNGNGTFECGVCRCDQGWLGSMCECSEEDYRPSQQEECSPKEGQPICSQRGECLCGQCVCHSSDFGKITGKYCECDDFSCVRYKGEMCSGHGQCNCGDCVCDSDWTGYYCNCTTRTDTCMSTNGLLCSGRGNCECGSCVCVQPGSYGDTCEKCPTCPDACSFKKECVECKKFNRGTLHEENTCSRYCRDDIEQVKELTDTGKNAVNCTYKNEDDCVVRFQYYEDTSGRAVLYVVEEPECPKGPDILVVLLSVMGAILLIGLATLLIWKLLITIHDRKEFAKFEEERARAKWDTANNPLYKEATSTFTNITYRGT
Description: MEL cells prepared as in FIG. 8 were treated with normal rBSP (10 μg/mL), rBSP whose RGD sequence had been mutated to KAE ([…]), and either GRGDS (SEQ ID NO: 10) peptide (400 μM) followed by rBSP or an αVβ3 antibody (1:4000) followed by rBSP for 10 minutes prior to the addition of normal human serum. The cells were then incubated for 10 minutes after which cell viability determined using the MTT assay (A). A cohort of MEL cells were pretreated with rOPN (10 μg/mL) alone, GRGDS (SEQ ID NO: 10) peptide followed by rOPN, the αVβ3 antibody followed by rOPN, or an anti-CD44 antibody (Chemicon, Co.) followed by rOPN, or hyaluronan (HA) followed by rOPN (B). Cells were then treated with normal human serum and viability assayed as in FIG. 8. […] Statistical significance was determined by analysis of variance. Percent cell viability was determined using A560 absorbance values of various conditions and a control where no serum had been added (100% viable). […]
Murine erytliroleukemia (MEL) cells (a gift of Dr. Marilyn Farquhar, Univ. CA San Diego.) grown in DMEM containing 10% fetal bovine serum and 4 mM glutamine were rinsed three times with gelatin veronal buffer with Mg_2^+ and EGTA (GVB-MgEGTA, Sigma, St. Louis, Mo.). […] Cell viability was determined spectrophotometrically by absorbance at 560 nm.

T1 sequence (P08603 19-1231 limits assumed): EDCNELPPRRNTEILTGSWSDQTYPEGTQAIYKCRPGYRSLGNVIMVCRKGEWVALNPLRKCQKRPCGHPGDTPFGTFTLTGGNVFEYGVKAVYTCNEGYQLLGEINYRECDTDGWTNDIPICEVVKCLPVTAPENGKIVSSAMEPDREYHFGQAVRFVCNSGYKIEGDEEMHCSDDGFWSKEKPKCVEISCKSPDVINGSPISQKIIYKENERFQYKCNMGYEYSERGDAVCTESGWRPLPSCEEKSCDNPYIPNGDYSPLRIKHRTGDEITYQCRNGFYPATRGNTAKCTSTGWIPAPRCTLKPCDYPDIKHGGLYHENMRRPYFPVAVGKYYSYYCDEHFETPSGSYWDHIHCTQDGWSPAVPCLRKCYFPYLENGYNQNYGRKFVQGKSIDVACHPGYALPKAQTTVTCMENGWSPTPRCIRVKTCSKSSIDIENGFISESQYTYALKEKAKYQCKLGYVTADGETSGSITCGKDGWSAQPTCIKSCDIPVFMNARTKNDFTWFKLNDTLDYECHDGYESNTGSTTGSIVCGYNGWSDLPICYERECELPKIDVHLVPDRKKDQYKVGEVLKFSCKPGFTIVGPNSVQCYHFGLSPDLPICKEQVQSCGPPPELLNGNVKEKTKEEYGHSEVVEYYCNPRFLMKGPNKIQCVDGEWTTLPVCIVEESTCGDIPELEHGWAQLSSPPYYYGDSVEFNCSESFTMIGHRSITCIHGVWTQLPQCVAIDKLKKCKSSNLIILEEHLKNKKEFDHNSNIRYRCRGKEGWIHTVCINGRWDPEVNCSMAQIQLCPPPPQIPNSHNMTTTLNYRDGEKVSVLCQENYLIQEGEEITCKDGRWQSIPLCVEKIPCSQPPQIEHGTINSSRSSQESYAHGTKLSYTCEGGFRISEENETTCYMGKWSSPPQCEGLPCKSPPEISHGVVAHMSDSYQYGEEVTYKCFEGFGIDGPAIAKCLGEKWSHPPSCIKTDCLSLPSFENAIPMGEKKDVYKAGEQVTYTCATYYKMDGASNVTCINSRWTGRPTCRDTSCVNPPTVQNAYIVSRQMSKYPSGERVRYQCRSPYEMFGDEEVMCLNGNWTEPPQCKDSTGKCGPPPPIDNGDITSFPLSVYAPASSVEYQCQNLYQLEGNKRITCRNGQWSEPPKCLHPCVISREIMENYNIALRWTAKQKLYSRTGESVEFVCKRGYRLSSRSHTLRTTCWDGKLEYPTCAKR

stoichiometry (DMP1:Factor H) [1] [mol/mol] | Kd [2] [nM] | stoichiometry (BSP:Factor H) [2] [mol/mol] | binding result [3] | Binder
1 | – | – | – | recombinant dentin matrix protein 1 (rDMP1) (ligand) LPVTRYQNNESEDSEEWKGHLAQAPTPPLESSESSEGSKVSSEEQANEDPSDSTQSEEGLGSDDHQYIYRLAGGFSRSTGKGGDDKDDDEDDSGDDTFGDDDSGPGPKDRQEGGNSRLGSDEDSDDTIQASEESAPQGQDSAQDTTSESRELDNEDRVDSKPEGGDSTQESESEEHWVGGGSDGESSHGDGSELDDEGMQSDDPESIRSERGNSRMNSAGMKSKESGENSEQANTQDSGGSQLLEHPSRKIFRKSRISEEDDRSELDDNNTMEEVKSDSTENSNSRDTGLSQPRRDSKGDSQEDSKENLSQEESQNVDGPSSESSQEANLSSQENSSESQEEVVSESRGDNPDPTTSYVEDQEDSDSSEEDSSHTLSHSKSESREEQADSESSESLNFSEESPESPEDENSSSQEGLQSHSSSAESQSEESHSEEDDSDSQDSSRSKEDSNSTESKSSSEEDGQLKNIEIESRKLTVDAYHNKPIGDQDDNDCQDGY
– | ≤ 1 | 1 | binds | recombinant human bone sialoprotein (rBSP) (ligand, post-translationally modified by the producing human marrow stromal fibroblasts (glycosylation, sulfation, phosphorylation; sites not stated), Range 17-317 follows the stated 16-residue leader; not checked against the listing; also called recombinant BSP; purified human BSP) FSMKNLHRRVKIEDSEENGVFKYRPRYYLYKHAYFYPHLKRFPVQGSSDSSEENGDDSSEEEEEEEETSNEGENNEESNEDEDSEAENTTLSATTLGYGEDATPGTGYTGLAAIQLPKKAGDITNKATKEKESDEEEEEEEEGNENEESEAEVDENEQGINGTSTNSTEAENGNGSSGGDNGEEGEEESVTGANAEGTTETGGQGKGTSKTTTSPNGGFEPTTPPQVYRTTSPPFGKTTTVEYEGEYEYTGVNEYDNGYEIYESENGEPRGDNYRAYEDEYSYFKGQGYDGYDGQNYYHHQ
